The source of these data is patent US20220298218A1 (ANTAG THERAPEUTICS, published 2022).

First the molecules themselves.
T1: human GIP receptor (human, UniProt P48546 22-466)
T1 sequence (looked up): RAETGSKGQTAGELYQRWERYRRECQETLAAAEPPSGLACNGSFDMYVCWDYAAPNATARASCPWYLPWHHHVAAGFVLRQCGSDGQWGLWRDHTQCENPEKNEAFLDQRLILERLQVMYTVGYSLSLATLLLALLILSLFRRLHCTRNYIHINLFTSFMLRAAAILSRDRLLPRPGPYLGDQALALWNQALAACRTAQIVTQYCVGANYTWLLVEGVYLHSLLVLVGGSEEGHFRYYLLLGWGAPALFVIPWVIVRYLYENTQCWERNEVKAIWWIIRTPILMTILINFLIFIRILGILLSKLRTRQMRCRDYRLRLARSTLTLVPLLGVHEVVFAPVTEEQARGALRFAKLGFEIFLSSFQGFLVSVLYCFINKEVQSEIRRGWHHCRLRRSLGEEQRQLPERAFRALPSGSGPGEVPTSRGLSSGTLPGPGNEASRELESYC

B1: AT461 (peptide)
peptide: TFISDYKIAMDKIHQQDFVNWLLAQKGKKNDWKHNI
HELM: PEPTIDE1{T.F.I.S.D.Y.K.I.A.M.D.K.I.H.Q.Q.D.F.V.N.W.L.L.A.Q.K.G.K.K.N.D.W.K.H.N.I}|PEPTIDE2{[O=C(O)CCCCCCCCCCCCCCC(=O)[*:2]].[gGlu]}$PEPTIDE1,PEPTIDE2,7:R3-2:R2$$$V2.0; N-terminus assumed
SMILES: CC[C@H](C)[C@H](NC(=O)[C@H](CC(N)=O)NC(=O)[C@H](Cc1c[nH]cn1)NC(=O)[C@H](CCCCN)NC(=O)[C@H](Cc1c[nH]c2ccccc12)NC(=O)[C@H](CC(=O)O)NC(=O)[C@H](CC(N)=O)NC(=O)[C@H](CCCCN)NC(=O)[C@H](CCCCN)NC(=O)CNC(=O)[C@H](CCCCN)NC(=O)[C@H](CCC(N)=O)NC(=O)[C@H](C)NC(=O)[C@H](CC(C)C)NC(=O)[C@H](CC(C)C)NC(=O)[C@H](Cc1c[nH]c2ccccc12)NC(=O)[C@H](CC(N)=O)NC(=O)[C@@H](NC(=O)[C@H](Cc1ccccc1)NC(=O)[C@H](CC(=O)O)NC(=O)[C@H](CCC(N)=O)NC(=O)[C@H](CCC(N)=O)NC(=O)[C@H](Cc1c[nH]cn1)NC(=O)[C@@H](NC(=O)[C@H](CCCCN)NC(=O)[C@H](CC(=O)O)NC(=O)[C@H](CCSC)NC(=O)[C@H](C)NC(=O)[C@@H](NC(=O)[C@H](CCCCNC(=O)CC[C@H](NC(=O)CCCCCCCCCCCCCCC(=O)O)C(=O)O)NC(=O)[C@H](Cc1ccc(O)cc1)NC(=O)[C@H](CC(=O)O)NC(=O)[C@H](CO)NC(=O)[C@@H](NC(=O)[C@H](Cc1ccccc1)NC(=O)[C@@H](N)[C@@H](C)O)[C@@H](C)CC)[C@@H](C)CC)[C@@H](C)CC)C(C)C)C(=O)O
B2: AT463 (peptide)
peptide: FISDYSIAMDKIK(C16 diacid)QQDFVNWLLAQKGKK-OH
modifications: N-terminus assumed
SMILES: CC[C@H](C)[C@H](NC(=O)[C@H](CO)NC(=O)[C@H](Cc1ccc(O)cc1)NC(=O)[C@H](CC(=O)O)NC(=O)[C@H](CO)NC(=O)[C@@H](NC(=O)[C@@H](N)Cc1ccccc1)[C@@H](C)CC)C(=O)N[C@@H](C)C(=O)N[C@@H](CCSC)C(=O)N[C@@H](CC(=O)O)C(=O)N[C@@H](CCCCN)C(=O)N[C@H](C(=O)N[C@@H](CCCCNC(=O)CCCCCCCCCCCCCCC(=O)O)C(=O)N[C@@H](CCC(N)=O)C(=O)N[C@@H](CCC(N)=O)C(=O)N[C@@H](CC(=O)O)C(=O)N[C@@H](Cc1ccccc1)C(=O)N[C@H](C(=O)N[C@@H](CC(N)=O)C(=O)N[C@@H](Cc1c[nH]c2ccccc12)C(=O)N[C@@H](CC(C)C)C(=O)N[C@@H](CC(C)C)C(=O)N[C@@H](C)C(=O)N[C@@H](CCC(N)=O)C(=O)N[C@@H](CCCCN)C(=O)NCC(=O)N[C@@H](CCCCN)C(=O)N[C@@H](CCCCN)C(=O)O)C(C)C)[C@@H](C)CC
B3: AT464 (peptide)
peptide: FISDYSIAMDKIK(C16 diacid)QQDFVNWLLAQKGKKNDW-OH
modifications: N-terminus assumed
SMILES: CC[C@H](C)[C@H](NC(=O)[C@H](CO)NC(=O)[C@H](Cc1ccc(O)cc1)NC(=O)[C@H](CC(=O)O)NC(=O)[C@H](CO)NC(=O)[C@@H](NC(=O)[C@@H](N)Cc1ccccc1)[C@@H](C)CC)C(=O)N[C@@H](C)C(=O)N[C@@H](CCSC)C(=O)N[C@@H](CC(=O)O)C(=O)N[C@@H](CCCCN)C(=O)N[C@H](C(=O)N[C@@H](CCCCNC(=O)CCCCCCCCCCCCCCC(=O)O)C(=O)N[C@@H](CCC(N)=O)C(=O)N[C@@H](CCC(N)=O)C(=O)N[C@@H](CC(=O)O)C(=O)N[C@@H](Cc1ccccc1)C(=O)N[C@H](C(=O)N[C@@H](CC(N)=O)C(=O)N[C@@H](Cc1c[nH]c2ccccc12)C(=O)N[C@@H](CC(C)C)C(=O)N[C@@H](CC(C)C)C(=O)N[C@@H](C)C(=O)N[C@@H](CCC(N)=O)C(=O)N[C@@H](CCCCN)C(=O)NCC(=O)N[C@@H](CCCCN)C(=O)N[C@@H](CCCCN)C(=O)N[C@@H](CC(N)=O)C(=O)N[C@@H](CC(=O)O)C(=O)N[C@@H](Cc1c[nH]c2ccccc12)C(=O)O)C(C)C)[C@@H](C)CC
B4: AT466 (peptide)
peptide: FISDYSIAMDKIK(C16 diacid)QQDFVNWLLAQKGKKNDWKHNITQ-OH
modifications: N-terminus assumed
SMILES: CC[C@H](C)[C@H](NC(=O)[C@H](CO)NC(=O)[C@H](Cc1ccc(O)cc1)NC(=O)[C@H](CC(=O)O)NC(=O)[C@H](CO)NC(=O)[C@@H](NC(=O)[C@@H](N)Cc1ccccc1)[C@@H](C)CC)C(=O)N[C@@H](C)C(=O)N[C@@H](CCSC)C(=O)N[C@@H](CC(=O)O)C(=O)N[C@@H](CCCCN)C(=O)N[C@H](C(=O)N[C@@H](CCCCNC(=O)CCCCCCCCCCCCCCC(=O)O)C(=O)N[C@@H](CCC(N)=O)C(=O)N[C@@H](CCC(N)=O)C(=O)N[C@@H](CC(=O)O)C(=O)N[C@@H](Cc1ccccc1)C(=O)N[C@H](C(=O)N[C@@H](CC(N)=O)C(=O)N[C@@H](Cc1c[nH]c2ccccc12)C(=O)N[C@@H](CC(C)C)C(=O)N[C@@H](CC(C)C)C(=O)N[C@@H](C)C(=O)N[C@@H](CCC(N)=O)C(=O)N[C@@H](CCCCN)C(=O)NCC(=O)N[C@@H](CCCCN)C(=O)N[C@@H](CCCCN)C(=O)N[C@@H](CC(N)=O)C(=O)N[C@@H](CC(=O)O)C(=O)N[C@@H](Cc1c[nH]c2ccccc12)C(=O)N[C@@H](CCCCN)C(=O)N[C@@H](Cc1c[nH]cn1)C(=O)N[C@@H](CC(N)=O)C(=O)N[C@H](C(=O)N[C@H](C(=O)N[C@@H](CCC(N)=O)C(=O)O)[C@@H](C)O)[C@@H](C)CC)C(C)C)[C@@H](C)CC
B5: AT462 (peptide)
peptide: TFISDYKIAMDKIHQQDFVNWLLAQKGKKNDWKHNIT
HELM: PEPTIDE1{T.F.I.S.D.Y.K.I.A.M.D.K.I.H.Q.Q.D.F.V.N.W.L.L.A.Q.K.G.K.K.N.D.W.K.H.N.I.T}|PEPTIDE2{[O=C(O)CCCCCCCCCCCCCCC(=O)[*:2]].[gGlu]}$PEPTIDE1,PEPTIDE2,7:R3-2:R2$$$V2.0; N-terminus assumed
SMILES: CC[C@H](C)[C@H](NC(=O)[C@H](CCCCNC(=O)CC[C@H](NC(=O)CCCCCCCCCCCCCCC(=O)O)C(=O)O)NC(=O)[C@H](Cc1ccc(O)cc1)NC(=O)[C@H](CC(=O)O)NC(=O)[C@H](CO)NC(=O)[C@@H](NC(=O)[C@H](Cc1ccccc1)NC(=O)[C@@H](N)[C@@H](C)O)[C@@H](C)CC)C(=O)N[C@@H](C)C(=O)N[C@@H](CCSC)C(=O)N[C@@H](CC(=O)O)C(=O)N[C@@H](CCCCN)C(=O)N[C@H](C(=O)N[C@@H](Cc1c[nH]cn1)C(=O)N[C@@H](CCC(N)=O)C(=O)N[C@@H](CCC(N)=O)C(=O)N[C@@H](CC(=O)O)C(=O)N[C@@H](Cc1ccccc1)C(=O)N[C@H](C(=O)N[C@@H](CC(N)=O)C(=O)N[C@@H](Cc1c[nH]c2ccccc12)C(=O)N[C@@H](CC(C)C)C(=O)N[C@@H](CC(C)C)C(=O)N[C@@H](C)C(=O)N[C@@H](CCC(N)=O)C(=O)N[C@@H](CCCCN)C(=O)NCC(=O)N[C@@H](CCCCN)C(=O)N[C@@H](CCCCN)C(=O)N[C@@H](CC(N)=O)C(=O)N[C@@H](CC(=O)O)C(=O)N[C@@H](Cc1c[nH]c2ccccc12)C(=O)N[C@@H](CCCCN)C(=O)N[C@@H](Cc1c[nH]cn1)C(=O)N[C@@H](CC(N)=O)C(=O)N[C@H](C(=O)N[C@H](C(=O)O)[C@@H](C)O)[C@@H](C)CC)C(C)C)[C@@H](C)CC
B6: AT465 (peptide)
peptide: FISDYSIAMDKIK(C16 diacid)QQDFVNWLLAQKGKKNDWKHN-OH
modifications: N-terminus assumed
SMILES: CC[C@H](C)[C@H](NC(=O)[C@H](CO)NC(=O)[C@H](Cc1ccc(O)cc1)NC(=O)[C@H](CC(=O)O)NC(=O)[C@H](CO)NC(=O)[C@@H](NC(=O)[C@@H](N)Cc1ccccc1)[C@@H](C)CC)C(=O)N[C@@H](C)C(=O)N[C@@H](CCSC)C(=O)N[C@@H](CC(=O)O)C(=O)N[C@@H](CCCCN)C(=O)N[C@H](C(=O)N[C@@H](CCCCNC(=O)CCCCCCCCCCCCCCC(=O)O)C(=O)N[C@@H](CCC(N)=O)C(=O)N[C@@H](CCC(N)=O)C(=O)N[C@@H](CC(=O)O)C(=O)N[C@@H](Cc1ccccc1)C(=O)N[C@H](C(=O)N[C@@H](CC(N)=O)C(=O)N[C@@H](Cc1c[nH]c2ccccc12)C(=O)N[C@@H](CC(C)C)C(=O)N[C@@H](CC(C)C)C(=O)N[C@@H](C)C(=O)N[C@@H](CCC(N)=O)C(=O)N[C@@H](CCCCN)C(=O)NCC(=O)N[C@@H](CCCCN)C(=O)N[C@@H](CCCCN)C(=O)N[C@@H](CC(N)=O)C(=O)N[C@@H](CC(=O)O)C(=O)N[C@@H](Cc1c[nH]c2ccccc12)C(=O)N[C@@H](CCCCN)C(=O)N[C@@H](Cc1c[nH]cn1)C(=O)N[C@@H](CC(N)=O)C(=O)O)C(C)C)[C@@H](C)CC

Where no end group is shown, it is not given here. The star is where a group is joined. C16 diacid = O=C(O)CCCCCCCCCCCCCCC(=O)*

The target of the assay is T1, human GIP receptor. The assay can be described thus: cell-based or functional assay.
In the case of B1, the “cAMP antagonism” value turned out to be 23 nM, the “cAMP antagonism % inhib” value was determined as 100% and the cAMP antagonism log is -7.6 log M.

For the molecule B2, the “cAMP antagonism” value was 14 nM, the “cAMP antagonism % inhib” value came out at 88% and the cAMP antagonism log is -7.8 log M.

On to B3, for which the “cAMP antagonism” value was determined as 50 nM, the “cAMP antagonism % inhib” value was found to be 100% and the cAMP antagonism log was -7.3 log M.

As for B4, the “cAMP antagonism” value worked out at 16 nM, the “cAMP antagonism % inhib” value was determined as 90% and the cAMP antagonism log was -7.8 log M.

As to B5, the “cAMP antagonism” value was 37 nM, the “cAMP antagonism % inhib” value was 85% and the cAMP antagonism log was -7.4 log M.

As to B6, the “cAMP antagonism” value amounted to 28 nM, the “cAMP antagonism % inhib” value was found to be 86% and the cAMP antagonism log is -7.6 log M.
